Reference: patent publication US20190359687A1 (Bayer, published 2019)
No end group written: not given here.

T1: human glycophorin A on human red blood cells or red blood cell membranes (human, UniProt P02724 20-150)
T1 construct: whole, on cells; also called hRBC; human RBC membranes
T1 sequence (looked up): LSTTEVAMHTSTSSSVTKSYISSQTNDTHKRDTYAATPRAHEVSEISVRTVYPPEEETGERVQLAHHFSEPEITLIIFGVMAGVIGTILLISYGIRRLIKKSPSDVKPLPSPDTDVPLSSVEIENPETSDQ

T2: GP9 peptide of the human GPA ectodomain (human, not fully specified (N-terminus))
T2 peptide: RTVYPPEE

T3: GP14 peptide of the human GPA ectodomain (human, not fully specified (N-terminus))
T3 peptide: PEEETGER

T4: recombinant human glycophorin A ectodomain protein (human, UniProt P02724 20-91)
T4 construct: 72 amino acids of the extracellular region; also called Hu-rec GPA
T4 sequence: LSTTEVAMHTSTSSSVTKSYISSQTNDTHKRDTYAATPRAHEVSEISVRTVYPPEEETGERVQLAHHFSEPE

T5: native human glycophorin A protein (human, UniProt P02724 20-150)
T5 construct: mature; also called Hu-nat GPA
T5 sequence (looked up): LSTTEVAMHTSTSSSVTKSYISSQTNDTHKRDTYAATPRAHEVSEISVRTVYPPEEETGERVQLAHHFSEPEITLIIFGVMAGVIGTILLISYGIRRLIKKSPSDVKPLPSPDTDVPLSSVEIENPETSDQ


Key:
[1] = target: T1, human glycophorin A on human red blood …; test: SPR (Biacore), Fab on human RBC membranes; * not accurate, instrument limit
Experimental: (§1) Kinetic analysis of the antibody binding to human red blood cell membranes was also performed using surface plasmon resonance (SPR) using a Biacore instrument. In this assay membranes prepared from human red blood cells were attached to a L1 sensor matrix and antibodies were flowed over the RBC membranes.
(§2) The binding kinetics of the affinity matured Fab antibodies was also measured.

[2] = target: T6, Cynomolgus monkey glycophorin A on Cynomolgus monkey red blood cells or red blood cell membranes (Cynomolgus monkey); test: Fab on intact cyno RBC, unbound Fab by ELISA; 60 min after 200-fold dilution
T6 construct: whole, on cells; also called Cyno RBC; Cynomolgus monkey RBC membranes

[3] = target: T6, Cynomolgus monkey glycophorin A on …; test: Fab on intact cyno RBC, unbound Fab by ELISA; 20 min after 200-fold dilution
[4] = target: T1, human glycophorin A on human red blood …; test: SPR (Biacore), Fab on human RBC membranes; T½ = 0.69/kd; * not accurate
Experimental: as §1, §2

[5] = target: T6, Cynomolgus monkey glycophorin A on …; test: Fab on intact cyno RBC, unbound Fab by ELISA; 120 min after 200-fold dilution
[6] = target: T2, GP9 peptide of the human GPA ectodomain; test: ELISA, Fab 0.5 ug/ml on biotin-peptide on streptavidin plate
Text: (§3) These peptides were attached to the surface of a streptavidin coated plate via a biotin moiety that was present at the N-terminus of each peptide.

[7] = target: T3, GP14 peptide of the human GPA ectodomain; test: as above
Text: as §3

[8] = target: T6, Cynomolgus monkey glycophorin A on …; test: Fab on intact cyno RBC, unbound Fab by ELISA; 0 min after 200-fold dilution
Experimental: (§4) The binding of affinity matured Fab antibodies to intact Cynomolgus monkey RBC was measured. Cynomolgus monkey RBC were isolated from fresh anti-coagulated blood by centrifugation through a ficol gradient and washing in PBS buffer. RBC diluted to 1/10th of normal hematocrit were incubated with the Fab at a final concentration of 7 ug/ml for 1 hour at room temperature on a rotating shaker after which a sample was taken and the RBC were pelleted by centrifugation and the supernatant was collected. The remaining RBC suspension was diluted 200-fold in PBS buffer and incubated for a total of 2 hours at room temperature on a rotating shaker and samples were removed at 0, 5 min, 20 min, 1 h and 2 h and the RBC pelleted and the supernatant collected. […] The amount of Fab in the supernatants was then measured using an ELISA assay and the results used to calculate the percentage of the input Fab that was bound to the RBC.

[9] = target: T6, Cynomolgus monkey glycophorin A on …; test: Fab 7 ug/ml on intact cyno RBC, unbound Fab by ELISA; pre-dilution
Experimental: as §4

[10] = target: T6, Cynomolgus monkey glycophorin A on …; test: Fab on intact cyno RBC, unbound Fab by ELISA; 5 min after 200-fold dilution
Experimental: as §4

[11] = target: T7, Cynomolgus monkey recombinant glycophorin A ectodomain (Cynomolgus monkey); test: ELISA, Fab on coated recombinant cyno GPA ectodomain
T7 construct: extracellular domain

[12] = target: T1, human glycophorin A on human red blood …; test: SPR (Biacore), Fab over human RBC membranes, 1:1 fit; * slight deviation possible
Experimental: as §1

[13] = target: T4, recombinant human glycophorin A …; test: ELISA, Fab on coated recombinant human GPA ectodomain
[14] = target: T5, native human glycophorin A protein; test: ELISA, Fab on coated native human GPA
[15] = target: T1, human glycophorin A on human red blood …; test: ELISA, Fab on coated human RBC membranes
Experimental: These membranes are prepared by first isolating red blood cells from citrated whole blood. Citrated whole blood is layered on to Ficol and centrifuged at low speed for 20 minutes to pellet the red blood cells. The supernatant containing plasma and other blood cells is discarded and the red blood cell pellet is subsequently washed 3 times in 10 cell volumes of phosphate buffered saline (PBS). A 10 ml pellet of purified red blood cells is resuspended in 30 ml of cold low osmorality 20 mM phosphate buffer (pH7.4) and incubated for 30 mins to break open the RBC. After Centrifugation at 10,000 rpm for 30 min at 5° C. the hemoglobin containing supernatant is discarded. To the membrane pellet another 30 ml of 20 mM phosphate buffer is added and the sample centrifuged again at 10,000 rpm for 30 min at 5° C. to pellet the membrane fraction. This wash and centrifugation step is repeated another 4 times. The red blood cell membranes are then resuspended in 20 mL of PBS to achieve an equivalent of approximately 2.5E9 cells/mL and stored frozen at −20° C. Binding of antibodies to RBC ghost can be measured by ELISA in which the RBC ghost suspension (5×10⁶ in 100 ul PBS) was added to each well of flat bottom 96-well ELISA microtiter plates (2HB, Immunolon) and the plates incubated overnight at 4° C. The plates were blocked with Starting blocking buffer (Thermo Fisher) for 2 hours at room temperature (RT). Antibodies or other test molecules were added to each well and incubated for 1.5 hours at RT. After 4 washes 100 ul of an appropriate detection antibody was added to each well and incubated for 1 hour at RT. After 4 washes the detection antibody was measured using appropriate detection reagents.

[16] = target: T1, human glycophorin A on human red blood …; test: SPR (Biacore), Fab on human RBC membranes; T½ = 0.69/kd
Experimental: as §1, §2

[17] = target: T6, Cynomolgus monkey glycophorin A on …; test: ELISA, Fab on coated cyno RBC membranes

| Kd [1] | koff [1] | percentage of input antibody bound [2] | percentage of input antibody bound [3] | Estimated T½ [4] | percentage of input antibody bound [5] | binding signal in ELISA (relative light units) [6] | binding signal in ELISA (relative light units) [7] | percentage of input antibody bound [8] | percentage of input antibody bound [9] | percentage of input antibody bound [10] | binding in ELISA relative to parental Fab [11] | Kd [12] | koff [12] | kon [12] | binding in ELISA relative to parental Fab [13] | binding in ELISA relative to parental Fab [14] | binding in ELISA relative to parental Fab [15] | Estimated T½ [16] | binding in ELISA relative to parental Fab [17] | Binder |
| --- | --- | --- | --- | --- | --- | --- | --- | --- | --- | --- | --- | --- | --- | --- | --- | --- | --- | --- | --- | --- |
| < 0.00233 nM | < 2e-05 s⁻¹ | 87% | 90% | 596 days | 85% | 169 RLU | 0 RLU | 87% | 94% | 90% |  |  |  |  |  |  |  |  |  | TPP-7790, affinity matured 6C12 Fab (Fab, V domains shown, Tested as Fab with a 6xHIS tag) VH: EVQLVQSGAEVKKPGASVKVSCKASGYTFTTYAIHWVRQAPGQGLEWMGYINPSSGYTRYNPKFKHRVTMTRDKSTSTAYMELRSLRSDDTAVYYCWTGTRDYWGQGTTVTVSS VL: DIQLTQSPSFLSASVGDRVTITCRASSSVRYIYWFQQKPGKAPKLLIYATSFLQSGVPSRFSGSGSGTEYTLTISSLQPEDFATYYCHQRNSFPYTFGQGTKLEIK |
|  |  |  |  |  |  | 1 RLU | -1 RLU |  |  |  | 1.4 relative to parental Fab | 0.9 nM | 0.0034 s⁻¹ | 4e+06 M⁻¹ s⁻¹ | 7.2 relative to parental Fab | 12.9 relative to parental Fab | 93.5 relative to parental Fab | 0.00139 days | 2.5 relative to parental Fab | TPP-5906, humanized and germlined 6C12 Fab; VL: (S24R, A26S, S49A, P54Q, F95Y); VH: (I48M, D56G, D66G, L70M, T72R) (Fab, V domains shown, The text says that a 6xHIS tag is present on the Fabs in the peptide ELISA; it is not in the printed chains) VH: EVQLVQSGAEVKKPGASVKVSCKASGYTFTTYTIHWVRQAPGQGLEWMGYINPSSGYTRYNPKFKGRVTMTRDKSTSTAYMELRSLRSDDTAVYYCQTGTRDYWGQGTTVTVSS VL: DIQLTQSPSFLSASVGDRVTITCRASSSVSYIYWFQQKPGKAPKLLIYATSTLQSGVPSRFSGSGSGTEYTLTISSLQPEDFATYYCHQRNSFPYTFGQGTKLEIKR |
